Data taken from patent US11198713B2, “Agents modulating beta-catenin functions and methods thereof” (FOG PHARMACEUTICALS, INC., priority 2017, dated 2021).
In brackets after ≈: the same amount, converted by molar mass. Like-named read-outs stand apart in the source and are kept apart here. Numbered stars: 1 amine (or outer) side, 2 acyl side, 3 side chain; on linkers, the order of the positions; unused ones are H or OH. Bridge positions count the residues as written; N and C are the ends. Square brackets hold non-standard residues; d marks the D form. Primed or numbered codes have the meaning given here. Peptide text beside a SMILES is read from it. * marks the point of attachment. MB(10) = Monomer B = PyrS, pyrrolidine stapling residue with allyl carbamate, (S)-3-amino-1-(allyloxycarbonyl)pyrrolidine-3-carboxylic acid, C=CCOC(=O)N1CC[C@@](N[*:1])(C(=O)[*:2])C1; MB(4) = Monomer B (PyrS), N-Alloc pyrrolidine stapling residue, (S)-3-amino-1-(allyloxycarbonyl)pyrrolidine-3-carboxylic acid, C=CCOC(=O)N1CC[C@@](N[*:1])(C(=O)[*:2])C1; R7″ = stapling residue, (R)-2-(6-heptenyl)alanine (drawn only), C=CCCCCC[C@@](C)(N[*:1])C(=O)[*:2]; MB = Monomer B = PyrS, Alloc-pyrrolidine stapling residue (allyl carbamate on pyrrolidine N); R7 = (R)-2-(6-heptenyl)alanine, C=CCCCCC[C@@](C)(N[*:1])C(=O)[*:2]; MB(5) = Monomer B (PyrS), N-Alloc pyrrolidine stapling residue; dαMeDab(Me) = CN(CC[C@@](C)(N[*:1])C(=O)[*:2])[*:3]; X1 = O=C([C@]1(N[*:1])CCN([*:3])C1)[*:2]; αMeW = C[C@](N)(Cc1c[nH]c2ccccc12)C(=O)O; Met(O2) = CS(=O)(=O)CC[C@H](N)C(=O)O; X2 = O=C(OCC=CCOC(=O)[*:2])[*:1]; R8 = C=CCCCCCC[C@@](C)(N)C(=O)O; αMeL = CC(C)C[C@](C)(N)C(=O)O; Lauroyl = CCCCCCCCCCCC(=O)*; Octanoyl = CCCCCCCC(=O)*

T1: full-length beta-catenin (Axin site) (Homo sapiens, UniProt P35222)
T1 construct: 15 nM full-length beta-catenin, 20 nM FITC labeled peptide in buffer
T1 sequence (P35222 1-781): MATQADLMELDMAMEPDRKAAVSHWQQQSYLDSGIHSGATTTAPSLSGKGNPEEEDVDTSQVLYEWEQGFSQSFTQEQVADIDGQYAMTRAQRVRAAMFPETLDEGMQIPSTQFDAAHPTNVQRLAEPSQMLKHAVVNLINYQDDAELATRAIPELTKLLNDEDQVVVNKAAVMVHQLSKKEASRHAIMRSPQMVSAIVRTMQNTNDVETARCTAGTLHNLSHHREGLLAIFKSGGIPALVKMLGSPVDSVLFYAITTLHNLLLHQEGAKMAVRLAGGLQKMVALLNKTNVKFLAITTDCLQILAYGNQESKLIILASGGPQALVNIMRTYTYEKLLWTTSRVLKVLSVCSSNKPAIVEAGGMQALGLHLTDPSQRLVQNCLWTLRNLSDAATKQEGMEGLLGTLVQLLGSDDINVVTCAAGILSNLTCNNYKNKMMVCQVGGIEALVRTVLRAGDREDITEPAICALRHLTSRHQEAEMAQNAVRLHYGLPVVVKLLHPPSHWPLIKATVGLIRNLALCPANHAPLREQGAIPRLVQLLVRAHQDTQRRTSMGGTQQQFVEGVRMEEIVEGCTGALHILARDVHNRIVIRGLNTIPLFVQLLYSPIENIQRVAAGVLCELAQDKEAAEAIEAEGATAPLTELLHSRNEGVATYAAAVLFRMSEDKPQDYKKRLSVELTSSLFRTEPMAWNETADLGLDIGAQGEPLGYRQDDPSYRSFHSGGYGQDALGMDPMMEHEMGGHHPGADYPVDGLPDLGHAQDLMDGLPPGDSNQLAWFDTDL

T2: full-length beta-catenin (UniProt P35222 2-781, limits assumed)
T2 construct: mature; also called full-length ß-Catenin; β-catenin
T2 sequence (looked up): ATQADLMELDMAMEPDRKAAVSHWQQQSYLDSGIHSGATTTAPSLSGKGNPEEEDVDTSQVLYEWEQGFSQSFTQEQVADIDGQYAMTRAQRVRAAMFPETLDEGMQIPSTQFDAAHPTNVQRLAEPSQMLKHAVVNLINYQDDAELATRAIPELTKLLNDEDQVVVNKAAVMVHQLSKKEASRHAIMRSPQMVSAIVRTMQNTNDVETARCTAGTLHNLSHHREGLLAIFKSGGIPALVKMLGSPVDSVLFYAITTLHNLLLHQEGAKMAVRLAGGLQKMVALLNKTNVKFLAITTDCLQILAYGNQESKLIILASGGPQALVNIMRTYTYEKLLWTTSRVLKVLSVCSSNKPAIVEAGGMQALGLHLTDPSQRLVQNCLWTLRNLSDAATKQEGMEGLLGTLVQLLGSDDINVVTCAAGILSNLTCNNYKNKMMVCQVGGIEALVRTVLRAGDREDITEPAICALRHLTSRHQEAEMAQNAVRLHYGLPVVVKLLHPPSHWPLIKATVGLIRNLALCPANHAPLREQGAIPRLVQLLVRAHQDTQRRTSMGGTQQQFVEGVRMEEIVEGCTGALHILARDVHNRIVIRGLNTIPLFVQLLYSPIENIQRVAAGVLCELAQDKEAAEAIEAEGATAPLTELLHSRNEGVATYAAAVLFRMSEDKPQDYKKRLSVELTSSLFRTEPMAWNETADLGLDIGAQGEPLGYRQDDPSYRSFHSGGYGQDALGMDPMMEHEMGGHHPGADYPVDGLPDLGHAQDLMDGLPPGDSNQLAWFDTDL

B1: FP0495a (peptide)
peptide: Ac-A[R7]ILDAHI[MD]RVW-NH2
modifications: staple 2-9; not fully specified; printed as Ac-A-R7-I-L-D-A-H-I-MD-R-V-W-NH2; also: amino staple R7/MD (-N(R')-, after CO2 extrusion from carbamate staple)

Legend:
[1] = Solubility in DPBS (A280 of supernatant); type: physicochemical; details: for Solubility in DPBS: Table 3 Part A; for solubility: Table 2, read-out: Solubility
Protocol: Suitable assays for assessing solubility are widely known in the art and can be utilized in accordance with the present disclosure. In some embodiments, in an exemplary protocol, dried peptide was reconstituted in DPBS (DPBS, 1×, cell culture grade, Sigma D8537) in triplicate, vortexed, sonicated and then centrifuged. Absorbance of the supernatant was measured at A280 (Nanodrop 2000) and the concentration was determined using the extinction coefficient for tryptophan. Exemplary solubility data are presented in, e.g., Table 2.

[2] = molecular target: T1, full-length beta-catenin (Axin site); assay: Competition fluorescence polarization assay (Axin site probe); type: binding; details: competition fluorescence polarization, Table 2; read-out: in vitro FP EC50
How it was run: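 Competition FP: 15 nM full-length β-catenin pre-incubated 5 min with 20 nM FITC-labelled stapled Axin-site peptide, then titrated peptide added (3-fold series from 5 μM) for 15 min in the dark. Buffer 50 mM Tris pH 8.0, 250 mM NaCl, 2% glycerol, 0.5 mM EDTA; duplicate reads.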

full-length beta-catenin = molecular target: T2, full-length beta-catenin; assay: competition FP, grade of FP EC50 (+: 500-5000 nM)
Protocol: In some embodiments, a competition fluorescence polarization assay is used to assess binding of provided compounds to beta-catenin. In an exemplary procedure, solutions of provided compounds, e.g., provided stapled peptides, were prepared in a buffer (e.g., 50 mM Tris pH 8.0, 250 mM NaCl, 2% glycerol, 0.5 mM EDTA, 0.02% w/v sodium azide) using a 3-fold serial dilution from 5 µM. Probe solution (15 nM full-length ß-Catenin, 20 nM FITC labeled peptide in buffer) was prepared and incubated for a period of time, e.g., 5 minutes, and the a volume, e.g., 40 µL per well plated in suitable plate, e.g., a black polystyrene 384-well plate (Corning). Equal volume of the serial diluted peptide was added to the plate and incubated protected from light for 15 minutes prior to read. Reads were performed on a Spectramax M5 (Molecular Devices) in duplicate. Suitable probe was FITC-PEG1-PQ-S5-ILD-S5-HVRRVWR (SEQ ID NO: 1) (hydrocarbon staple formed by two S5 via olefin metathesis) and/or FITC-bA-PQ-S5-ILD-S5-HVRRVWR (SEQ ID NO: 3) (hydrocarbon staple formed by two S5 via olefin metathesis). […] Another peptide, FPO217c (Ac-AR_8ILDAHIM$B5$RVW (SEQ ID NO: 280), with N-terminal proline removed and valine replaced with isoleucine compared to FP0025c) was prepared.

FP EC50 (full-length beta-catenin) [nM]	further results	Molecule
–	Solubility in DPBS ([1]; DPBS): 65 (Isomer 1) μM; EC50 [2]: < 100 nM	CC[C@H](C)[C@@H]1NC(=O)[C@H](Cc2c[nH]cn2)NC(=O)[C@H](C)NC(=O)[C@H](CC(=O)O)NC(=O)[C@H](CC(C)C)NC(=O)[C@H]([C@@H](C)CC)NC(=O)[C@](C)(NC(=O)[C@H](C)NC(C)=O)CCCC=CCOC(=O)N(C)CCC[C@@](C)(C(=O)N[C@@H](CCCNC(=N)N)C(=O)N[C@H](C(=O)N[C@@H](Cc2c[nH]c3ccccc23)C(N)=O)C(C)C)NC1=O (single isomer, unassigned) [FP0510c Isomer 1, Ac-A-R5-I-L-D-A-H-I-MH-R-V-W-NH2]
–	Solubility in DPBS ([1]; DPBS): 31 (Isomer 2) μM; EC50 [2]: < 100 nM	CC[C@H](C)[C@@H]1NC(=O)[C@H](Cc2c[nH]cn2)NC(=O)[C@H](C)NC(=O)[C@H](CC(=O)O)NC(=O)[C@H](CC(C)C)NC(=O)[C@H]([C@@H](C)CC)NC(=O)[C@](C)(NC(=O)[C@H](C)NC(C)=O)CCCC=CCOC(=O)N(C)CCC[C@@](C)(C(=O)N[C@@H](CCCNC(=N)N)C(=O)N[C@H](C(=O)N[C@@H](Cc2c[nH]c3ccccc23)C(N)=O)C(C)C)NC1=O (single isomer, unassigned) [FP0510c Isomer 2, Ac-A-R5-I-L-D-A-H-I-MH-R-V-W-NH2]
–	Solubility in DPBS ([1]; DPBS): 49 (Isomer 1) μM; EC50 [2]: < 100 nM	CC[C@H](C)[C@@H]1NC(=O)[C@H](Cc2c[nH]cn2)NC(=O)[C@H](C)NC(=O)[C@H](CC(=O)O)NC(=O)[C@H](CC(C)C)NC(=O)[C@H]([C@@H](C)CC)NC(=O)[C@](C)(NC(=O)[C@H](C)NC(C)=O)CCCCC=CCOC(=O)N(C)CCC[C@@](C)(C(=O)N[C@@H](CCCNC(=N)N)C(=O)N[C@H](C(=O)N[C@@H](Cc2c[nH]c3ccccc23)C(N)=O)C(C)C)NC1=O (single isomer, unassigned) [FP0511c Isomer 1, Ac-A-R6-I-L-D-A-H-I-MH-R-V-W-NH2]
–	solubility thermodynamic ([1]; DPBS, read-out: solubility): 7 µM (≈ 11.1 µg/mL)	CC[C@H](C)[C@@H]1NC(=O)[C@H](Cc2c[nH]cn2)NC(=O)[C@H](C)NC(=O)[C@H](CC(=O)O)NC(=O)[C@H](CC(C)C)NC(=O)[C@H]([C@@H](C)CC)NC(=O)[C@](C)(NC(=O)[C@H](C)NC(C)=O)CCCCCCC=CCOC(=O)N2CC[C@@](C(=O)N[C@@H](CCCNC(=N)N)C(=O)N[C@H](C(=O)N[C@@H](Cc3c[nH]c4ccccc34)C(N)=O)C(C)C)(C2)NC1=O (single isomer, unassigned) [FPO217c, Ac-AR8ILDAHIMBRVW (SEQ ID NO: 280)]
–	solubility [1]: 2 µM (≈ 3.4 µg/mL)	CCCCCCCC(=O)N[C@@H](C)C(=O)N[C@]1(C)CCN(C)C(=O)OCC=CCOC(=O)N2CC[C@@](C(=O)N[C@@H](CCCNC(=N)N)C(=O)N[C@H](C(=O)N[C@@H](Cc3c[nH]c4ccccc34)C(N)=O)C(C)C)(C2)NC(=O)[C@H]([C@@H](C)CC)NC(=O)[C@H](Cc2c[nH]cn2)NC(=O)[C@H](C)NC(=O)[C@H](CC(=O)O)NC(=O)[C@H](CC(C)C)NC(=O)[C@H]([C@@H](C)CC)NC1=O [FP0597c_c8, Oct-A-MG-I-L-D-A-H-I-MB-R-V-W-NH2] (Octanoyl-A[dαMeDab(Me)]ILDAHI[X1]RVW-NH2; linker 2-9 via X2)
–	solubility ([1]; DPBS): 4 µM (≈ 7.02 µg/mL)	CCCCCCCCCCCC(=O)N[C@@H](C)C(=O)N[C@]1(C)CCN(C)C(=O)OCC=CCOC(=O)N2CC[C@@](C(=O)N[C@@H](CCCNC(=N)N)C(=O)N[C@H](C(=O)N[C@@H](Cc3c[nH]c4ccccc34)C(N)=O)C(C)C)(C2)NC(=O)[C@H]([C@@H](C)CC)NC(=O)[C@H](Cc2c[nH]cn2)NC(=O)[C@H](C)NC(=O)[C@H](CC(=O)O)NC(=O)[C@H](CC(C)C)NC(=O)[C@H]([C@@H](C)CC)NC1=O [FP0597c_c12, Dodec-A-MG-I-L-D-A-H-I-MB-R-V-W-NH2] (Lauroyl-A[dαMeDab(Me)]ILDAHI[X1]RVW-NH2; linker 2-9 via X2)
500 to 5000	–	AXILDAHIXRVW (not fully specified; Ac-A-R4-I-L-D-A-H-I-MH-R-V-W-NH2; amino staple R4/MH) [FP0509a]
500 to 5000	–	B1
500 to 5000	–	Ac-A[R8]ILDAHI[MB]RVW-NH2 (staple 2-9; also: Isomer 1, staple olefin E/Z not assigned, also called FPO217c Isomer 1) [FP0217c Isomer 1]
500 to 5000	–	Ac-A[R7″]ILDAHI[MA]RVW-NH2 (staple 2-9; not fully specified; printed as Ac-A-R7-I-L-D-A-H-I-MA-R-V-W-NH2) [FP0516a Isomer 2]
500 to 5000	–	Ac-A[R8]ILDAHI[MB(10)]SVW-NH2 (staple 2-9) [FP0542c]
500 to 5000	–	Ac-A[R8]ILDAHI[MB(4)]R[αMeL]W-NH2 (staple 2-9) [FP0633c]
500 to 5000	–	Ac-A[R8]IL[Met(O2)]AHI[MB(5)]RVW-NH2 (staple 2-9) [FP0629c]
500 to 5000	–	AXILDAHIXRVW (not fully specified; Ac-A-MI-I-L-D-A-H-I-S6-R-V-W-NH2; carbamate staple MI/S6) [FP0507c]
500 to 5000	–	Ac-A[R8]ILDAHI[MB(4)]RV[αMeW]-NH2 (staple 2-9) [FP0631c]
500 to 5000	–	AXILDAHIXRVW (not fully specified; Ac-A-MG-I-L-D-A-H-I-ME-R-V-W-NH2; carbamate staple MG/ME) [FP0596c]
500 to 5000	–	AXILDAHIXRVW (not fully specified; Ac-A-R5-I-L-D-A-H-I-MH-R-V-W-NH2; amino staple R5/MH) [FP0510a]
